Literature values as cited in article PMC11128129.

Biological target: PCSK9 (Homo sapiens) (UniProt Q8NBP7)
Sequence (Q8NBP7 153-692): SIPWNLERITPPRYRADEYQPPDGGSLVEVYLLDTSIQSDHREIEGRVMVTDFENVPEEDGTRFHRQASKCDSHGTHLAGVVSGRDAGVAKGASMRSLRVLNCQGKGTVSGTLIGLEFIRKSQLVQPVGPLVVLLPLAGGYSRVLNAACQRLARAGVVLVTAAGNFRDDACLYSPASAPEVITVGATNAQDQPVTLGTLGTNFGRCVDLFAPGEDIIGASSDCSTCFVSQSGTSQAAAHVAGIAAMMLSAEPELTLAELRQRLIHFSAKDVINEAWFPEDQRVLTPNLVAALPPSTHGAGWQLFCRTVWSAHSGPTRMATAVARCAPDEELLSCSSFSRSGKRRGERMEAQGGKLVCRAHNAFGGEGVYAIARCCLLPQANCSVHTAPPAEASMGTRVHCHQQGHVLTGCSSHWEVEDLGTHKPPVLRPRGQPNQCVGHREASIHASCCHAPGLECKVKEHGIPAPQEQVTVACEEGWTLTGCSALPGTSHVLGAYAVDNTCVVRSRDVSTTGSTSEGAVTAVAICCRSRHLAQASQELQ

In the case of LDLR (from UniProt P01130), the Kd is given as 719 nM.
